Protein stability index data for 29 sequences are collected here from the supplement of paper PMC10567573.

The data set can be described thus: protein stability index of a GFP-peptide fusion (GPS, HEK-293T) (PSI 1-6); higher = more stable.
Where [1] appears, read: treatment: DMSO, c terminus: a fixed tail appended.
The mark [2] stands for this setting: treatment: MLN4924 1 uM, 8 h, c terminus: a fixed tail appended.

± gives the standard deviation.
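Note: 24-mer peptide tiles fused after GFP, lentivirally expressed, FACS-sorted into six equal bins by GFP/DsRed ratio, decoded by Illumina sequencing, PSI is the read-weighted mean bin number.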

On to GYIDPEELAEIFRASGEHVTDEEI [TNNC2], for which the protein stability index runs as follows: under setting [1], 5.01 ± 0.87; under setting [2], 4.99 ± 0.17.
GYLIKILTNSNLPEEELDFFEILR [CNOT7]: the protein stability index amounted to 2.15 ± 0.25 under setting [1] and 2.23 ± 0.3 under setting [2].
As for GYNPDYDESGGPDNEDYPLFRELW [KLHDC10], the protein stability index under setting [1] was 3.37 ± 0.36 and the protein stability index under setting [2] was found to be 3.47 ± 0.18.
HAIYSLSYPMRRSYRYKLLNWAYQ [STEAP1] had a protein stability index under setting [1] of 2.33 ± 0.71 and a protein stability index under setting [2] of 2.63 ± 0.61.
HFSLRVQSRANGVKYPELVLEHSL [PCDHGA10]: the protein stability index by setting is: under setting [1], 2.35 ± 0.29; under setting [2], 2.27 ± 0.35.
In turn, HFTAMVWKNTKKMGVGKASASDGS [GLIPR2] displayed a protein stability index under setting [1] of 3.2 ± 0.14 and a protein stability index under setting [2] of 3.36 ± 0.36.
As to HGCEYSCVNMDRSFACQCPEGHVL [MATN2], the protein stability index amounted to 3.57 ± 0.29 under setting [1] and 3.61 ± 0.26 under setting [2].
For HLKSSRNSTSVKKKSSRNIFSIVF [P2RY14], the protein stability index worked out at 2.39 ± 0.48 under setting [1] and 2.13 ± 0.55 under setting [2].
As for HMFVWGGYKSNQVRGLYDFYLPRE [KLHDC2], the protein stability index under setting [1] was 2.24 ± 0.26 and the protein stability index under setting [2] came out at 2.19 ± 0.5.
HPSENIIAVAATNNLYIFQDKVN [PPP2R2B]: the protein stability index amounted to 2.44 ± 0.22 (treatment: DMSO, c terminus: native) and 2.64 ± 0.21 (treatment: MLN4924 1 uM, 8 h, c terminus: native).
On to HQEAEMAQNAVRLHYGLPVVVKLL [CTNNB1], for which the protein stability index reads like this: under setting [1], 2.58 ± 0.18; under setting [2], 2.62 ± 0.21.
Take HQGHSDQHHHHHHHHHGRDFLLRA [RHOBTB2]: the protein stability index is, setting by setting: under setting [1], 3.45 ± 0.11; under setting [2], 3.65 ± 0.24.
Turning to HRMVVKIGDFGISKILSSKSKAYT [NEK8], the protein stability index was 2.33 ± 0.084 under setting [1] and 2.14 ± 0.12 under setting [2].
For the sequence HRRRTICGTPNYLSPEVLNKQGHG [PLK2], the protein stability index was 3.99 ± 0.19 under setting [1] and 4.17 ± 0.17 under setting [2].
With HSSPVDLKIPQVRGMDLSWESRTG [LCOR], the protein stability index is, setting by setting: under setting [1], 3.43 ± 0.33; under setting [2], 3.65 ± 0.31.
Take HSVLQIRYSGKILKNNETLVQHGV [IQUB]: the protein stability index was determined as 2.09 ± 0.035 under setting [1] and 2.31 ± 0.28 under setting [2].
The matching figures for HTDIKPENILMCVDDAYVRRMAAE [SRPK2]: 4 ± 0.22 and 4.07 ± 0.27.
For HTQVLPDVRLLPRRLPLAFRDATS [DYRK1B], the protein stability index runs as follows: under setting [1], 2.84 ± 0.32; under setting [2], 3.04 ± 0.22.
As to HVIHIIDFGLAKEYIDPETKKHIP [CSNK1G1], the protein stability index came to 1.99 ± 0.29 under setting [1] and 2.16 ± 0.087 under setting [2].
Regarding HVKKLQQKVATLEKRNRQLRERVK [CCDC3], the protein stability index by setting is: under setting [1], 3.72 ± 0.26; under setting [2], 4 ± 0.61.
IADRAAHDESPGNNVVDISVPPTT [RAB11B]: the protein stability index by setting is: under setting [1], 5.43 ± 0.24; under setting [2], 5.21 ± 0.13.
Consider IAKNLVEKGILTTEKQNFLLFDMT [GOLPH3L], for which the protein stability index stood at 2.06 ± 0.18 under setting [1] and 2.15 ± 0.22 under setting [2].
With ICCWSFYGQGRKIAEVCCTSIVYA [KCTD10], the protein stability index by setting is: under setting [1], 2.98 ± 0.44; under setting [2], 3.44 ± 0.54.
On to IEKEVFPIMAKEGQLYAMELQGFW [GMPPB], for which the protein stability index reads like this: under setting [1], 2.77 ± 0.44; under setting [2], 2.27 ± 0.37.
Taken in the same sequence, the figures for IELDRTIMPDGTIVTTVTTVQSRP [C2CD2L] were 2.1 ± 0.14 and 2.09 ± 0.23.
As to IEQDAVVPSEWLSSVYKQQWFAML [GMCL1], the protein stability index reads like this: under setting [1], 2.26 ± 0.098; under setting [2], 2.78 ± 0.3.
For IFDEDHDEMVIVKDIDMFSMCEHH [GCH1], the protein stability index reads like this: under setting [1], 3.16 ± 0.24; under setting [2], 3.31 ± 0.13.
With IFGSNKWTTEQQQRFHEICSNLVK [ARL6IP1], the protein stability index under setting [1] worked out at 2.98 ± 0.13 and the protein stability index under setting [2] came out at 3.03 ± 0.14.
Turning to IGMPFNQLGTLAGSKYYNVEAMYC [SMG5], the protein stability index by setting is: under setting [1], 2.36 ± 0.51; under setting [2], 2.27 ± 0.3.
